Results taken from patent US20260356955 (published 2026).
Residue numbers refer to the chain shown, from its start.

T1: cynomolgus KLRB1 ECD (cynomolgus)
T1 chain: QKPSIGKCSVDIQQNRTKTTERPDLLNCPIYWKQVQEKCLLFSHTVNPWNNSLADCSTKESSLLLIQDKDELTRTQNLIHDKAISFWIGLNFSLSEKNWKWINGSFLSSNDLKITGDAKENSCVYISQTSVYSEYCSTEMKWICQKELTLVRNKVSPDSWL

T2: cynomolgus KLRB1 on CHO-K1 (cynomolgus)
T2 chain: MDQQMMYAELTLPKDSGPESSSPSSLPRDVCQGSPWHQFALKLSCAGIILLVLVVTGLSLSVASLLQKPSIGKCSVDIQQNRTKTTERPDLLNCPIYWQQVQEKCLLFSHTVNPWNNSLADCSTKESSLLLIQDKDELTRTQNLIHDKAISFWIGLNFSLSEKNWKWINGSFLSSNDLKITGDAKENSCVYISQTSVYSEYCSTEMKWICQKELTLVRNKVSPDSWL

B1: Hu47A5H2-14 (antibody, V domains shown)
VH: QVQLVQSGAEVKKPGASVKVSCKGSGYSFTGYWMHWVRQAPGQGLEWMGMIHPSDSETRLNQKFKDKVTMTVDKSTSTVYMELSSLRSEDTAVYYCASEGLRRGSFAYWGQGTLVTVSS
VL: DIVLTQSPDSLAVSLGERATINCRASESVDNYGMTFMSWYQQKPGQPPKLLIYAASNQGSGVPDRFSGSGSGTDFTLTISSLQAEDVAVYYCQQSKEVPYTFGQGTKLEIK
B2: Hu47A5H2-13 (antibody, V domains shown)
VH: B1 VH
VL: B1 VL with L4M
B3: Hu47A5H2-05 (antibody, V domains shown)
VH: B1 VH with G24A, K67R, K74T
VL: B1 VL with L4M
B4: Hu47A5H2-15 (antibody, V domains shown)
VH: B1 VH
VL: B1 VL with Y40F
B5: Hu47A5H2-01 (antibody, V domains shown)
VH: B1 VH with G24A, K67R, V72R, K74T
VL: B1 VL with L4M
B6: Hu47A5H2-10 (antibody, V domains shown)
VH: B1 VH with G24A, K67R
VL: B1 VL
B7: Hu47A5H2-04 (antibody, V domains shown)
VH: B1 VH with G24A, K67R, V72R, K74T
VL: EIVLTQSPATLSLSPGERATLSCRASESVDNYGMTFMSWYQQKPGQAPRLLIYAASNQGSGIPARFSGSGSGTDFTLTISSLEPEDFAVYYCQQSKEVPYTFGQGTKLEIK
B8: Hu47A5H2-16 (antibody, V domains shown)
VH: B1 VH
VL: B7 VL
B9: Hu47A5H2-09 (antibody, V domains shown)
VH: B1 VH with G24A, K67R
VL: B1 VL with L4M
B10: Hu47A5H2-08 (antibody, V domains shown)
VH: B1 VH with G24A, K67R, K74T
VL: B7 VL
B11: Hu47A5H2-06 (antibody, V domains shown)
VH: B1 VH with G24A, K67R, K74T
VL: B1 VL
B12: Hu47A5H2-03 (antibody, V domains shown)
VH: B1 VH with G24A, K67R, V72R, K74T
VL: B1 VL with Y40F
B13: Hu47A5H2-12 (antibody, V domains shown)
VH: B1 VH with G24A, K67R
VL: B7 VL
B14: Hu47A5H2-02 (antibody, V domains shown)
VH: B1 VH with G24A, K67R, V72R, K74T
VL: B1 VL
B15: Hu22F10G3-1.4 (antibody, V domains shown)
VH: QVQLQESGPGLVKPSQTLSLTCTVSGYSLTSDFAWNWIRQHPGKGLEWIGDIRYSGSTDYNPSLKGRVTISVDTSKNQFSLKLSSVTAADTAVYYCARGGYYGYDEGYPMDYWGQGTLVTVSS
VL: DIVMTQSPDSLAVSLGERATISCRASESVDVYGNSFMHWYQQKPGQPPKLLIYLAFNLKSGVPARFSGSGSGTDFTLTISSLQAEDVATYYCQQNNEDPFTFGQGTKLEIK
B16: Hu22F10G3-1.3 (antibody, V domains shown)
VH: B15 VH
VL: B15 VL with A64D, T89V
B17: Hu22F10G3-4.3 (antibody, V domains shown)
VH: B15 VH with H41F, I49M, V68S, V72R, S80F
VL: B15 VL with A64D, T89V
B18: Hu22F10G3-2.2 (antibody, V domains shown)
VH: B15 VH with I49M, V72R
VL: B15 VL with S22N, T89V
B19: Hu22F10G3-4.1 (antibody, V domains shown)
VH: B15 VH with H41F, I49M, V68S, V72R, S80F
VL: B15 VL with S22N, A64D, T89V
B20: Hu22F10G3-2.1 (antibody, V domains shown)
VH: B15 VH with I49M, V72R
VL: B15 VL with S22N, A64D, T89V
B21: Hu22F10G3-3.2 (antibody, V domains shown)
VH: B15 VH with I49M, V68S, V72R
VL: B15 VL with S22N, T89V
B22: Hu22F10G3-1.2 (antibody, V domains shown)
VH: B15 VH
VL: B15 VL with S22N, T89V
B23: Hu22F10G3-2.4 (antibody, V domains shown)
VH: B15 VH with I49M, V72R
VL: B15 VL
B24: Hu22F10G3-3.3 (antibody, V domains shown)
VH: B15 VH with I49M, V68S, V72R
VL: B15 VL with A64D, T89V

Target: T1, cynomolgus KLRB1 ECD
Test: ELISA

Row | EC50 [nM] | Binder
1 | 0.0414 | B1
2 | 0.0984 | B2
3 | 0.0824 | B3
4 | 0.00973 | B4
5 | 0.116 | B5
6 | 0.0174 | B6
7 | 0.0441 | B7
8 | 0.0429 | B8
9 | 0.0283 | B9
10 | 0.0306 | B10
11 | 0.0562 | B11
12 | 0.0137 | B12
13 | 0.02 | B13
14 | 0.0372 | B14

What follows are binders tested against human KLRB1 ECD (human) (assay: ELISA).
Chain of human KLRB1 ECD (human) (chain, as listed by the source): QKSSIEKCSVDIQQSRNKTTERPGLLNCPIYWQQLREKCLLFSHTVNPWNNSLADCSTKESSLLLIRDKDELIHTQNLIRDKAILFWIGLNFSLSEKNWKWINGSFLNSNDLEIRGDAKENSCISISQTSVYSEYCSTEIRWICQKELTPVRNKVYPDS

Row | EC50 [nM] | Binder
15 | 0.0309 | B1
16 | 0.0266 | B2
17 | 0.0172 | B3
18 | 0.0241 | B4
19 | 0.0195 | B5
20 | 0.0272 | B6
21 | 0.0212 | B7
22 | 0.0287 | B8
23 | 0.0273 | B9
24 | 0.0174 | B10
25 | 0.0204 | B11
26 | 0.0205 | B12
27 | 0.0263 | B13
28 | 0.0198 | B14

The binders below were run against human KLRB1 ECD (human) (assay: SPR).

Row | Kd [nM] | Binder
29 | 0.153 | B15
30 | 0.177 | B16
31 | 0.0972 | B17
32 | 0.135 | B18
33 | 0.105 | B19
34 | 0.104 | B20
35 | 0.189 | B21
36 | 0.152 | B22
37 | 0.116 | B23
38 | 0.18 | B24

Target: T2, cynomolgus KLRB1 on CHO-K1
Test: FACS

Row | EC50 [nM] | Binder
39 | ~1.82 | B1
40 | ~1.81 | B2
41 | 5.22 | B3
42 | ~1.74 | B4
43 | 7.76 | B5
44 | ~1.65 | B6
45 | 4.71 | B7
46 | ~1.8 | B8
47 | ~1.86 | B9
48 | 2.55 | B10
49 | 6.62 | B11
50 | 11.6 | B12
51 | ~1.69 | B13
52 | 7.51 | B14

These binders were tested against human KLRB1 on CHO-K1 (human) (assay: FACS).
Chain of human KLRB1 on CHO-K1 (human) (chain, as listed by the source): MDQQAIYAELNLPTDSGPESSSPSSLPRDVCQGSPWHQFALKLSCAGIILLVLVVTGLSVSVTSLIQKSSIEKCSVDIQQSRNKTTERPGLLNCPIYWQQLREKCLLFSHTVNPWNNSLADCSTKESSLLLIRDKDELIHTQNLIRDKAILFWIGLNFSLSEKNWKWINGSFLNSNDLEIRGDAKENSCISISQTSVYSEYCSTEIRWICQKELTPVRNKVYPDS

Row | EC50 [nM] | Binder
53 | 2.12 | B1
54 | 1.79 | B2
55 | 1.49 | B3
56 | 1.98 | B4
57 | 2.65 | B5
58 | 0.88 | B6
59 | 1.67 | B7
60 | 2.11 | B8
61 | 1.96 | B9
62 | 1.68 | B10
63 | 1.67 | B11
64 | 1.73 | B12
65 | 5.16 | B13
66 | 2.08 | B14

What follows are binders tested against human KLRB1 on CHO-K1 (human) (assay: competition, CLEC2D, FACS).

Row | IC50 [nM] | Binder
67 | 2.54 | B1
68 | 2.31 | B2
69 | 2.16 | B3
70 | 2.47 | B4
71 | 1.59 | B5
72 | 1.96 | B6
73 | 2.53 | B7
74 | 2.41 | B8
75 | 2.22 | B9
76 | 2.42 | B10
77 | 2.66 | B11
78 | 2.31 | B12
79 | 2.17 | B13
80 | 2.05 | B14
